Test results published in PMC7116145.

How the values were obtained:
[1] = target: CPTX, biotinylated on a C-terminal Avitag (immobilised in SPR) (UniProt P23435); test: SPR
[2] = target: NP1PTX fused to the C-terminus of a three-stranded GCN4 coiled coil (UniProt Q15818); test: SEC-MALS
[3] = target: CPTX-HIS, purified recombinant (UniProt P23435); test: SEC-MALS

Chain of human β-neurexin-1 LNS6 domain including spliced sequence #4 (P58400 86-295): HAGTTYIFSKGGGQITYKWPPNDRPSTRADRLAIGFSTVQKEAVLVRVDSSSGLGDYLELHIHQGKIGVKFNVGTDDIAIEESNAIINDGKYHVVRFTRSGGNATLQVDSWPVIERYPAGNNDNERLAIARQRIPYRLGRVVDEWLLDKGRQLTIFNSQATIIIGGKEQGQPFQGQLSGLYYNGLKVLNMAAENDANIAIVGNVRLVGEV

In the case of “human β-neurexin-1 LNS6 domain including spliced sequence #4 (from UniProt P58400 86-295) (domain or fragment)”, the Kd [1] is reported as 4.9 nM.
“NP1PTX fused to the C-terminus of a three-stranded GCN4 coiled coil (from UniProt Q15818 224-431)” showed a stoichiometry N [2] of 3.
Work on “CPTX-HIS, purified recombinant (from UniProt P23435 22-53; Q15818 224-431) (designed binder)” yielded a stoichiometry N [3] of 6.
